Data: the supplement of paper PMC10567573

B1: STEAP1 (parent)
chain: LWKMKPRRNLEEDDYLHKDTGETS
B2: TMEM106C (parent)
chain: SEQLVNFTGKAEMGGPFSYVYFFC

Variants of: B1
Assay: protein stability index of a GFP-peptide fusion (GPS, HEK-293T) (PSI 1-6); higher = more stable
Conditions: c terminus: a fixed tail appended
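Note: lentivirally expressed fusions sorted by FACS into six bins by GFP to DsRed ratio, PSI derived from sequencing read proportions per bin multiplied by bin number.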

Protein stability index, by site and new letter:
R7: E 4.47 | V 4.14 | D 5.25 | W 4.07 | P 4.62 | S 4.58 | K 4.69 | N 4.71 | C 4.26 | T 4.85
L16: G 5.08 | N 4.97 | Q 4.87 | E 4.79 | H 4.36 | P 4.2 | Y 4.14 | R 4.1 | W 4.19 | S 4.6 | F 4.26 | I 4.23 | D 4.92
W2: C 5.08 | K 4.78 | A 5.25 | L 5 | H 4.96 | M 4.78 | P 5.49 | R 4.83 | S 5.48 | N 4.82 | Q 5.31
Y15: V 5.07 | L 4.33 | R 4.53 | D 5.15 | A 5.02 | C 4.66 | G 4.83 | K 4.84 | E 4.77 | T 5.04 | M 4.68
E22: T 3.7 | L 4.13 | H 3.89 | C 4 | F 3.83 | P 3.98 | G 4.37 | Q 4.11 | V 3.86 | D 4.47
H17: E 4.35 | G 4.5 | P 4.8 | C 4.32 | S 4.54 | Y 4.38 | A 4.93
N9: F 4.06 | D 4.53 | W 3.08 | L 4.15 | E 4.49 | G 4.58 | S 4.56 | V 4.18 | I 4.15 | P 4.11
M4: L 4.55 | H 4.81 | N 4.69 | G 4.86 | R 4.47 | S 4.69 | W 4.14 | F 3.99 | P 4.41
T23: E 5.03 | N 4.37 | P 4.92 | V 4.12 | H 4.4 | S 4.77 | D 4.59
K3: L 3.81 | W 3.27 | M 4.11 | D 5.06 | P 4.72 | S 4.51
D14: H 4.18 | G 4.31 | M 4 | Y 3.87 | I 3.84 | T 4.46 | F 3.74 | E 4.63 | R 4.7 | C 4.23
R8: T 4.47 | Q 4.67 | W 3.82 | E 4.83 | Y 4.04 | N 4.53 | F 3.93 | P 4.61 | G 4.07 | I 4.22
T20: K 3.6 | R 4.44 | P 4.51 | E 4.8 | A 4.39 | L 4.13 | F 3.51 | M 3.84 | G 4.58 | Q 4.71 | N 4.46 | W 3.85
S24: M 4.16 | N 4.72 | C 3.89 | Q 3.85 | E 4.52 | F 4.22 | Y 4.11 | W 3.5
D19: H 3.83 | W 2.87 | I 3.46 | Y 3.81 | R 4.09 | E 4.41 | V 3.43 | P 4.36 | K 4.23 | A 3.94
P6: I 3.94 | F 3.62 | L 3.86 | D 4.41 | N 4.52 | G 4.42 | W 3.16 | K 4.1 | R 3.65 | A 3.94
L1: Q 5.18 | N 4.84 | G 4.75 | C 4.43 | R 4.8 | K 4.57 | W 4.18 | I 3.97 | H 4.92 | Y 4.26 | V 4.69 | D 5.23
E11: S 4.06 | N 3.83 | Q 4.12 | R 4.04 | P 4.2 | I 3.82 | K 4.58 | T 4.15 | A 3.89 | F 3.61
K5: N 4.32 | D 4.8 | A 3.93 | C 4.45 | G 4.5 | H 4.4 | W 2.86 | L 3.98 | M 4 | E 4.74 | R 4.11
E12: N 4.15 | H 3.75 | D 4.46 | P 4.26 | R 4.07 | V 4.09 | T 4.28 | F 3.51 | G 4.16
L10: D 4.9 | V 4.34 | E 4.89 | R 4.24 | N 4.4 | S 5.12 | Y 4.1 | Q 4.72
K18: D 4.7 | N 4.51 | E 4.87 | T 4.6 | W 3.81 | V 4.21 | R 4.75
D13: E 4.84 | F 3.83 | M 3.8 | A 3.94 | T 4.19 | W 3.21 | L 3.88 | Q 4.63 | P 4.45 | H 3.88
G21: S 4.59 | K 4.26 | D 4.25 | C 4.21 | Y 4.08 | R 3.89 | V 3.64 | W 3.15 | I 3.31 | Q 4.33

Variants of: B2
Assay: as above
Conditions: c terminus: a fixed tail appended

Protein stability index: each site, then its substitutions
S1: N 2.85 | Y 1.72 | T 3.09 | Q 2.63 | I 3.37 | F 2.65 | C 2.6 | P 2.9 | A 2.51 | W 2.49 | R 3.55 | D 1.62 | M 3.28 | V 3.6 | E 2.98 | G 3.79 | H 3.23 | L 3.63 | K 2.67
E2: L 1.91 | I 3 | T 2.64 | S 1.47 | A 2.44 | N 3.28 | D 3.75 | R 2.85 | Y 2 | F 3.3 | H 2.8 | P 3.82 | W 2.95 | Q 2.65 | M 3.48 | V 2.69 | C 2.18 | G 2.88 | K 2.29
L4: N 3.12 | D 2.39 | P 2.07 | W 2.2 | K 3.49 | H 4.32 | T 3.41 | Y 3.31 | A 2.54 | I 2.74 | Q 1.93 | S 2.11 | C 1.94 | E 2.62 | F 2.75
V5: P 4.22 | Y 3.6 | G 1.26 | C 2.67 | L 3.05 | I 3.42 | N 2.58 | Q 2.89 | R 2.8 | A 2.95 | S 2.45 | K 3.06 | F 2.76 | M 2.83 | E 1.79 | T 1.81 | H 2.52 | W 4.3 | D 3.94
N6: C 3.24 | I 2.71 | K 2.82 | G 3.12 | L 1.38 | A 2.28 | E 3.28 | H 1.97 | D 2.88 | M 3.44 | Q 2.39 | P 1.58 | F 2.56
Q3: H 3.21 | M 2.52 | D 3.39 | C 2.98 | G 3.44 | L 3.56 | R 2.4 | W 3.02 | E 2.57 | F 2.76 | K 2.79 | N 3.22 | S 2.73 | Y 2.99 | V 3.16 | I 2.94 | A 1.85 | T 2.79
